B1: Actin nucleation-promoting factor WASL (Homo sapiens), O00401 (parent)
chain: MSSVQQQPPPPRRVTNVGSLLLTPQENESLFTFLGKKCVTMSSAVVQLYAADRNCMWSKKCSGVACLVKDNPQRSYFLRIFDIKDGKLLWEQELYNNFVYNSPRGYFHTFAGDTCQVALNFANEEEAKKFRKAVTDLLGRRQRKSEKRRDPPNGPNLPMATVDIKNPEITTNRFYGPQVNNISHTKEKKKGKAKKKRLTKADIGTPSNFQHIGHVGWDPNTGFDLNNLDPELKNLFDMCGISEAQLKDRETSKVIYDFIEKTGGVEAVKNELRRQAPPPPPPSRGGPPPPPPPPHNSGPPPPPARGRGAPPPPPSRAPTAAPPPPPPSRPSVAVPPPPPNRMYPPPPPALPSSAPSGPPPPPPSVLGVGPVAPPPPPPPPPPPGPPPPPGLPSDGDHQVPTTAGNKAALLDQIREGAQLKKVEQNSRPVSCSGRDALLDQIRQGIQLKSVADGQESTPPTPAPTSGIVGALMEVMQKRSKAIHSSDEDEDEDDEEDFEDDDEWED

Variants of: B1
Settings: with arpc1_yeast ARC40, P38328
Chain of arpc1_yeast ARC40, P38328 (P38328 whole entry): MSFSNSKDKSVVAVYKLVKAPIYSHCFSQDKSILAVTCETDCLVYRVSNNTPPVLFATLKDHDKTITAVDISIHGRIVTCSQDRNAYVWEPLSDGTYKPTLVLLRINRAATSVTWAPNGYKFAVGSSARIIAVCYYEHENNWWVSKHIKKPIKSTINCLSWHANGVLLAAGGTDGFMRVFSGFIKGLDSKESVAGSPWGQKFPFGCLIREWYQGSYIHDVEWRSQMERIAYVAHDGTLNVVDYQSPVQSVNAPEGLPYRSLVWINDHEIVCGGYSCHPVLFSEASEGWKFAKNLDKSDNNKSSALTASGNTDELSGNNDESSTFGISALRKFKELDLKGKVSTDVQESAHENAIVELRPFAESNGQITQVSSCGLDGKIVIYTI

Question: MSSVQQQPPPPRRVTNVGSLLLTPQENESLFTFLGKKCVTMSSAVVQLYAADRNCMWSKKCSGVACLVKDNPQRSYFLRIFDIKDGKLLWEQELYNNFVYNSPRGYFHTFAGDTCQVALNFANEEEAKKFRKAVTDLLGRRQRKSEKRRDPPNGPNLPMATVDIKNPEITTNRFYGPQVNNISHTKEKKKGKAKKKRLTKADIGTPSNFQHIGHVGWDPNTGFDLNNLDPELKNLFDMCGISEAQLKDRETSKVIYDFIEKTGGVEAVKNELRRQAPPPPPPSRGGPPPPPPPPHNSGPPPPPARGRGAPPPPPSRAPTAAPPPPPPSRPSVAVPPPPPNRMYPPPPPALPSSAPSGPPPPPPSVLGVGPVAPPPPPPPPPPPGPPPPPGLPSDGDHQVPTTAGNKAALLDQIREGAQLKKVEQNSRPVSCSGRDALLDQIRQGIQLKSVADGQESTPPTPAPTSGIVGALMEVMQKRSKAIHSSDEDEDEDDEEDFEDDDEAED [W503A] was tested. Which “effect of a mutation on the interaction” value did it give?
Answer: Its value is “decreasing interaction”.

Variants of: B1
Settings: with arp3_yeast ARP3, P47117
Chain of arp3_yeast ARP3, P47117 (P47117 whole entry): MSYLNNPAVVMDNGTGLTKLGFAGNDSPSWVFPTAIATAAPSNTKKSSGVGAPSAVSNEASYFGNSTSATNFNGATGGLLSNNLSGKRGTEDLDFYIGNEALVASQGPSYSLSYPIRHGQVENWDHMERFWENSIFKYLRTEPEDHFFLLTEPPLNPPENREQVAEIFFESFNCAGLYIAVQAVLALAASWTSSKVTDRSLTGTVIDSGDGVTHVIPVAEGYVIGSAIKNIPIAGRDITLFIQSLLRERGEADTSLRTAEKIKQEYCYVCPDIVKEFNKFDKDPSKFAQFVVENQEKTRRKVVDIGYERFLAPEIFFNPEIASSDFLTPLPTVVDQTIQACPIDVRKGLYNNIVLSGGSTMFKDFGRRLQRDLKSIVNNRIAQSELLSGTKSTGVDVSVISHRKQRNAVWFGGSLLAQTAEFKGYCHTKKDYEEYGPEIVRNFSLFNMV

Question: How did the “effect of a mutation on the interaction” value turn out when MSSVQQQPPPPRRVTNVGSLLLTPQENESLFTFLGKKCVTMSSAVVQLYAADRNCMWSKKCSGVACLVKDNPQRSYFLRIFDIKDGKLLWEQELYNNFVYNSPRGYFHTFAGDTCQVALNFANEEEAKKFRKAVTDLLGRRQRKSEKRRDPPNGPNLPMATVDIKNPEITTNRFYGPQVNNISHTKEKKKGKAKKKRLTKADIGTPSNFQHIGHVGWDPNTGFDLNNLDPELKNLFDMCGISEAQLKDRETSKVIYDFIEKTGGVEAVKNELRRQAPPPPPPSRGGPPPPPPPPHNSGPPPPPARGRGAPPPPPSRAPTAAPPPPPPSRPSVAVPPPPPNRMYPPPPPALPSSAPSGPPPPPPSVLGVGPVAPPPPPPPPPPPGPPPPPGLPSDGDHQVPTTAGNKAALLDQIREGAQLKKVEQNSRPVSCSGRDALLDQIRQGIQLKSVADGQESTPPTPAPTSGIVGALMEVMQKRSKAIHSSDEDEDEDDEEDFEDDDEAED [W503A] was run?
Answer: Its value is “decreasing interaction”.

Variants of: B1
Settings: with arp2_yeast ARP2, P32381
Chain of arp2_yeast ARP2, P32381 (P32381 whole entry): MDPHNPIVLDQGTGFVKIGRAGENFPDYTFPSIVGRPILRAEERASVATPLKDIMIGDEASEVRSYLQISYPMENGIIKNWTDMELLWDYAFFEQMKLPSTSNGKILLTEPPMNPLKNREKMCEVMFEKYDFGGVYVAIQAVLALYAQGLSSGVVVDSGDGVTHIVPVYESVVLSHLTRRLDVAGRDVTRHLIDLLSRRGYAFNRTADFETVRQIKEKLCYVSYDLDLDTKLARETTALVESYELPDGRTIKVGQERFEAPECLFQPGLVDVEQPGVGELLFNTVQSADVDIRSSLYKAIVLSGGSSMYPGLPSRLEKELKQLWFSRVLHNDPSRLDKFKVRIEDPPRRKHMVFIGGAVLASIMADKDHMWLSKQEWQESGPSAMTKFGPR

Question: For MSSVQQQPPPPRRVTNVGSLLLTPQENESLFTFLGKKCVTMSSAVVQLYAADRNCMWSKKCSGVACLVKDNPQRSYFLRIFDIKDGKLLWEQELYNNFVYNSPRGYFHTFAGDTCQVALNFANEEEAKKFRKAVTDLLGRRQRKSEKRRDPPNGPNLPMATVDIKNPEITTNRFYGPQVNNISHTKEKKKGKAKKKRLTKADIGTPSNFQHIGHVGWDPNTGFDLNNLDPELKNLFDMCGISEAQLKDRETSKVIYDFIEKTGGVEAVKNELRRQAPPPPPPSRGGPPPPPPPPHNSGPPPPPARGRGAPPPPPSRAPTAAPPPPPPSRPSVAVPPPPPNRMYPPPPPALPSSAPSGPPPPPPSVLGVGPVAPPPPPPPPPPPGPPPPPGLPSDGDHQVPTTAGNKAALLDQIREGAQLKKVEQNSRPVSCSGRDALLDQIRQGIQLKSVADGQESTPPTPAPTSGIVGALMEVMQKRSKAIHSSDEDEDEDDEEDFEDDDEAED [W503A], which “effect of a mutation on the interaction” value is on record?
Answer: Its value is “decreasing interaction”.
